Measurements from patent US20070185028A1, “Compositions and methods for treatment of protein misfolding and protein aggregation diseases” (priority 2004, published 2007).

What was measured:
Format in all cases: biochemical
βH crystallin = assay: Chaperone assay, thermal aggregation of βH crystallin at 50° C.; details: 50:1 molar ratio of peptide:βH crystallin, sixty minutes, 340 nm
Protocol: The chaperone activity of the peptides was measured as their ability to protect against the thermal aggregation of three chaperone target proteins βH crystallin, ADH and CS in chaperone assays performed at 50° C. (FIG. 19). A non-interactive αB crystallin sequence 111HGKHEERQDE120 was used as the negative control in the chaperone assays (FIG. 19). Based on near and far UVCD, the three target proteins unfolded in the order: CS>>>ADH>>βH crystallin when they were heated at 50° C. for sixty minutes (FIGS. 15 and 16). The thermal aggregation of βH crystallin, ADH and CS was measured as light scattering at λ=340 nm in the presence and absence of each peptide. The chaperone activity of each peptide was calculated as percent protection in which the aggregation of each target protein in the absence of any peptides was set at 0% protection (FIG. 19). The interactive peptides […] and 131LTITSSLSDGV141 were effective inhibitors of aggregation of all three chaperone target proteins.
A (top left): thermal aggregation of chaperone target proteins βH crystallin, ADH and CS in the absence of peptides was measured as light scattering at λ=340 nm. Each target protein was heated at 50° C. for sixty minutes in the absence or presence of one of the peptides. […] The chaperone activity of each peptide was calculated as percent protection in which the aggregation of each target protein in the absence of any peptides was set at 0% protection. The ability of the 73DRFSVNLDVKHFS85, 131LTITSSLSDGV141 and 111HGKHEERQDE120 to protect against the thermal aggregation of βH crystallin (B: top right), ADH (C: bottom left) and CS (D: bottom right) were tested in vitro (vertical bars). […] A 10:1 molar ratio of peptide:target protein was sufficient in conferring significant protection against the aggregation of CS by 73DRFSVNLDVKHFS85 and 131LTITSSLSDGV141.

amyloid beta (1-42) = amyloid beta (1-42) (Homo sapiens, UniProt P05067); assay: Cu+++-induced aggregation of amyloid beta (1-42), light scattering 360 nm; details: 100 mM Cu+++
Protocol: In vitro assays were also performed to measure the ability of the human αB crystallin derived peptides identified in Example 1 to inhibit aggregation of Cu^+++-induced amyloid beta (1-42) aggregation. Aggregation assays were performed using routine procedures, in the presence or absence of a synthesized peptide identified in Example 1, in the presence of 100 mM Cu^+++. Aggregation was measured spectrophotometrically as light scattering at a wavelength of 360 nm. Aggregated amyloid-beta was assigned a value of 100% aggregation and used to normalize aggregation in the presence of synthesize peptides.
Aggregation was measured spectrophotometrically as light scattering at a wavelength of 360 nm. Aggregated amyloid-beta was assigned a value of 100% aggregation and used to normalize aggregation in the presence of synthesize peptides. Aggregation was plotted as a bar graph with the standard error for duplicate experiments. The 1 st vertical bar is the scattering measured for aggregated amyloid-beta (100% aggregation) in the presence of 100 mM Cu^+++. The 2nd-4th vertical bars is the scattering from amyloid-beta in the presence of wild type recombinant human αB crystallin. The 5th-13th vertical bars are the scattering of amyloid-beta in the presence of the synthetic peptides, DRFSVNLDVKHFS or LTITSSLSDGV or HGKHEERQDE at selected concentrations. A prefix of 10× represents a 10:1 molar concentration of amyloid-beta to either wild type αB crystallin or its peptides. A prefix of 1× represents a 1:1 molar concentration of amyloid-beta to either wt αB crystallin or its peptides. A prefix of 0.1× represents a 1:10 molar concentration of amyloid-beta to either wt αB crystallin or its peptides.

β2-microglobulin (β2m) = biological target: T1, β2-microglobulin (β2m) (Homo sapiens, UniProt P61769); assay: β2-microglobulin fibrillation ThT assay; details: five αB crystallin peptides and control
T1 construct: purchased MP Biomedical
Protocol: Addition of 5.8 μM αB crystallin peptides, ST, DR, LT, HG, and ER decreased the ThT fluorescence of β2m by 40-64%. When the concentration of the αB crystallin peptides was increased to 29 μM and 145 μM, no further decrease in ThT fluorescence was observed. The negative control peptide AT1 had no effect on β2m fibrillation even at a concentration as high as 290 μM. All five αB crystallin peptides inhibited β2m fibrillation at sub-stoichometric and stoichometric concentrations (5.8 μM and 29 μM).
The Thioflavin T (ThT) fluorescence of β2m in the presence of varying concentrations of αB crystallin peptides and controls was measured. […] When the concentration of the peptides was increased to 29 μM (1:1::peptide:β2m), the αB crystallin peptides decreased the ThT fluorescence by 35-65%. When the concentration of the peptides was increased further to 145 μM ([…]), the αB crystallin peptides decreased the ThT fluorescence by 13-27%. […] The formation and inhibition of β2-microglobulin fibrils was verified microscopically.
β2-microglobulin fibrillation ThT assays were performed as described previously. Raman et al., Biochem J 392:573-81, 2005; Ivanova et al., Proc Natl Acad Sci USA 101:10584-9, 2004. Peptides were dissolved to 2 mM in 0.25% DMSO and diluted accordingly, while β2-microglobulin was dissolved in 25 mM sodium acetate, 25 mM sodium phosphate, pH 2.4. For the 5:1::peptide:β2-microglobulin assay, 10 μL of 430 μM peptide was mixed with 10 μL of 86 μM β2-microglobulin, 7 μl of 25 mM sodium acetate, 25 mM sodium phosphate, pH 2.4 and 3 μL of 1 mM ThT. For the 1:1::peptide:β2-microglobulin assay, 10 μL of 86 μM peptide was mixed with 10 μL of 86 μM (2-microglobulin, 7 μl of 25 mM sodium acetate, 25 mM sodium phosphate, pH 2.4 and 3 μL of 1 mM ThT. For the 1:5::peptide:β2-microglobulin assay, 10 μL of 17.2 μM peptide was mixed with 10 μL of 86 μM β2-microglobulin, 7 μl of 25 mM sodium acetate, 25 mM sodium phosphate, pH 2.4 and 3 μL of 1 mM ThT. ThT fluorescence was measured using a Perkin Elmer Victor^3 V plate reader. Assays were performed in 384-well fluorescence plates in duplicates or triplicates. Samples were incubated at 37° C. ThT fluorescence was measured continuously for 180 minutes. The effect of the peptides and APS was calculated as percentage fibril formation relative to β2-microglobulin alone (100%) at the end of 180 minutes.

[1] = 1:1 and 1:10 molar ratio of amyloid-beta to peptide
[2] = 10:1 molar ratio of amyloid-beta to peptide

T1 sequence (P61769 21-119): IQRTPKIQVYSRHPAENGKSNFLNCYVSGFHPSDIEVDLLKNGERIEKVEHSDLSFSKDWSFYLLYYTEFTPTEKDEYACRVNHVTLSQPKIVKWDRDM

Row | Sequence | percent protection against thermal aggregation of βH crystallin (βH crystallin) | prevention of Cu+++-induced aggregation of amyloid-beta (amyloid beta (1-42); [1]) | prevention of Cu+++-induced aggregation of amyloid-beta (amyloid beta (1-42); [2]) | effect on β2-microglobulin fibril formation, overall (β2-microglobulin (β2m))
1 | DRFSVNLDVKHFS | approximately 30% | equally effective | less effective | 
2 | HGKHEERQDE | No protection | equally effective | less effective | most effective inhibitors
3 | LTITSSLSSDGV |  |  |  | most effective inhibitors
